Measured values: patent publication US20250073350A1 (BROAD INSTITUTE, published 2025)

Molecular target: the molecule itself
Experiment: self-association; size exclusion and electron microscopy of protein produced in E. coli

| Protein | binding result |
| --- | --- |
| MmMOAP1, bacterially produced (other, mouse, UniProt Q9ERH6 1-352, looked up, also called modulator of apoptosis 1) MTLRLLEDWCRGMDMNPRKALLVAGIPPTCGVADIEEALQAGLAPLGEHRLLGRMFRRDENKNVALIGLTVETGSALVPKEIPAKGGVWRVIFKPPDTDSDFLCRLNEFLKGEGMTMGELTRVLGNRNDPLGLDPGIMIPEIRAPMLAQALNEALKPTLQYLRYKKLSVFSGRDPPGPGEEEFESWMFHTSQVMKTWQVSDVEKRRRLIESLRGPAFEIIRVLKINNPFITVAECLKTLETIFGIIDNPRALQVKYLTTYQKTDEKLSAYVLRLEPLLQKLVQKGAIEKEVVNQARLDQVIAGAVHKSVRRELGLPEGSPAPGLLQLLTLIKDKEAEEEEVLLQAELEGYCT | binds |
| MmPNMA5, bacterially produced (other, mouse, UniProt Q5DTT8 1-618, looked up, also called paraneoplastic antigen-like protein 5) MAVALLDDWCKGMDLDPKKAVLIVGIPVQYTEAAINDALKEGLPPLCAYKVIGRMFRREDEAKAVLIELPEVVDYTMMPTHIPAEGGAWEVVVKPRSPDDEFMNKLIYFLRDEGRRIVDVAKALGFSTVPTGKIELKNLDQDKPKGLKSLCNNSTCYKKLKVFSGSPFPGPGEESFETWLEEVTELMQLWQVSEREKKQCLLESLRGSALSIMQALWTSNDSLTVEQCLKALKHIFGNKEDSKVLQFRFLQSSQKPAEKVSDYLLRLEPLLQKAVQQSPLSAHSADSIRLKHVLSQVSMTTGLRGKLSLLDQQGCPPTFLELMKLTRDEEEWESTVVVEEQEQVRRDSSACEAANEVVTQAEDSREVSTQTTGEEMTSVKRRRLLWRHSAGEEGQRKESGFWAESEPDEQKPYVRAQESGNERGAWAVSHPNPKEIEAQDSQEFLPVAGNRDTLTKSWGSPDKGTGDMSVAEGQQGQGKAPNFLLARNDPNKQEQIPHSSVTTKWQDRGECQRLKWGASMITRPQGNPDRSWDTSGSQDGEDGCSELRMPTGTEAAQGVEEPATGLSWAEDTSAWEQARLGRETVPRRGGRRIQPVFRIIYTALGEPHEGSTLESFRE | binds |
